Assay results as given in patent US20250215403A1, “Compositions and Methods for Cardiac Tissue Regeneration” (Temple University - Of The Commonwealth System Of Higher …, priority 2022, published 2025).

Tests used:
[1] = tested on: PSAT1; test: PSAT1 protein expression in mouse myocardium post-MI after modRNA delivery; assay type: in vivo; settings: 100 μg modRNA into myocardium post-MI; within 24 hours
Method: In vivo transfection of modRNA was done as described previously in a recent method paper (Magadum A., et al., Circulation. 2020, 141 (15): 1249-1265; Sultana N., et al., Mol Ther, 2017, 25 (6): 1306-1315) using sucrose citrate buffer containing 10 μl of sucrose in nuclease-free water (0.3 g/ml), 10 μl of citrate (0.1M pH-7; Sigma) mixed with 10 μl of different concentrations of modRNA in saline to a total volume of 30 μl. Immediately after LAD ligation, mice received an intra-myocardial injection of modRNA (100 μg) in total volume of 30 μL at 3 different sites (mid-anterior×2 places and apical anterior) in the peri-infarct area (Magadum A., et al., Circulation. 2020, 141 (15): 1249-1265; Magadum, A., et al., 2021, Advanced Science, 9:2004661). For in vitro transfection, RNAiMAX transfection reagent (Life Technologies) was used according to manufacturer's recommendation (Magadum A., et al., Circulation. 2020, 141 (15): 1249-1265; Sultana N., et al., Mol Ther, 2017, 25 (6): 1306-1315).
All surgical and experimental procedures with mice were performed in accordance with protocols approved by Institutional Animal Care and Use Committees at Temple University Animal Care and Use Committee (IACUC). C57BL6 or CM-specific MADM mice (8-12-weeks-old) were anesthetized with isoflurane. […] This ratio was calculated as the heart tissue weight relative to the mouse total body weight in grams (g). […]

[2] = tested on: serine synthesis pathway (SSP); test: 13C glucose isotopic tracer metabolic flux analysis in neonatal rat CMs; assay type: cell-based
Method: P3 neonatal rat CMs (2×10^6) were cultured in DMEM and transfected with Luc or PSAT1 modRNA. After 6 hours medium was changed with ^13C glucose-containing DMEM. Samples were collected at 10 min, 2 hours and 18 hours by flash freezing the cell culture plates using liquid nitrogen and stored at −80° C. Metabolites were extracted from cells using 80% methanol (Magadum A., et al., Circulation. 2020, 141 (15): 1249-1265). Targeted LC/MS analyses were performed on a Q Exactive Orbitrap mass spectrometer (Thermo Scientific) coupled to a Vanquish UPLC system (Thermo Scientific). The Q Exactive was operated in polarity-switching mode. A Sequant ZIC-HILIC column (2.1 mm i.d.×150 mm, Merck) was used for separation of metabolites with a flow rate was 150 μL/min. […] Relative metabolite quantitation was performed based on peak area for each metabolite. All data analyses were done using scripts written in house (Metabolomics Facility, Biotechnology Resource Center, Cornell University).

B1: PSAT1 modRNA: modified mRNA with N1-methylpseudouridine, transcribed in vitro, encoding phosphoserine aminotransferase 1 (ORF SEQ ID NO: 1, RNA SEQ ID NO: 2) (nucleic acid)
chain: AUGGAAGCCACCAAGCAAGUGGUUAACUUUGGGCCCGGGCCUGCCAAGCUGCCACACUCGGUAUUGUUGGAGAUCCAGAAGCAGCUACUAGACUACAGAGGACUCGGCAUCAGUGUGCUCGAAAUGAGUCACAGGUCAUCAGAUUUUGCCAAGAUUAUUGGCAAUACAGAGAAUCUUGUGAGGGAAUUGCUAGCUGUUCCCAACAACUACAAGGUGAUCUUUGUACAAGGAGGUGGGUCUGGCCAGUUCAGUGCUGUCCCCUUAAAUCUGAUUGGCCUGAAAGCUGGAAGGAGUGCUGACUACGUGGUGACCGGAGCUUGGUCAGCUAAGGCUGCGGAAGAAGCCAAGAAGUUUGGAACGGUGAACAUUGUCCACCCUAAACUUGGAAGUUACACAAAAAUUCCAGACCCAAGCACCUGGAACCUCAACCCGGACGCCUCCUAUGUAUACUUCUGUGCAAACGAGACUGUGCACGGGGUGGAGUUUGACUUCGUACCUGACGUCAAGGGAGCGGUGCUGGUCUGUGACAUGUCCUCAAACUUCUUAUCCAGGCCGGUGGAUGUUUCCAAGUUUGGUGUGAUUUUCGCUGGUGCUCAGAAGAAUGUUGGCUCUGCCGGGGUGACGGUGGUGAUUGUCCGGGAUGACCUGCUGGGGUUCUCGCUCAGAGAGUGCCCAUCAGUCCUUGACUACAAAGUGCAGGCUGGGAACAACUCUUUGUAUAACACACCUCCGUGCUUCAGCAUCUACGUCAUGGGCAUGGUCCUGGAAUGGAUCAAGAACAACGGCGGGGCCGCAGCCAUGGAGAAGCUCAGCUCCAUCAAAUCCCAAAUGAUUUAUGAGAUCAUUGAUAAUUCUCAAGGAUUUUAUGUAUGCCCAGUGGAGCGCCAGAAUAGAAGCAGGAUGAACAUCCCAUUUCGCAUUGGCAACGCCAAAGGAGACGAAGCUUUGGAAAAGCGGUUUCUUGACAAGGCGGUAGAACUCAACAUGAUCUCCUUGAAGGGGCACAGGUCAGUGGGAGGCAUUCGUGCCUCUCUGUAUAACGCUGUCACAACCGAAGACGUUGAGAAGCUGGCGGCCUUCAUGAAGAAUUUCUUGGAGAUGCAUCAGCUGUGA
modifications: N1-methylpseudouridine
In the case of B1, the “PSAT1 protein expression in mouse myocardium” value [1] is reported as “robust”, the glutathione levels ([2]; 13C glucose flux) is reported as “Increased” and the “purines AMP and GMP levels” value ([2]; 13C glucose flux) is reported as “increased”. The TCA cycle intermediates ([2]; 13C glucose, vs Luc modRNA) was “Increased levels” and the “metabolites involved in the serine synthesis pathway (SSP), including phosphoserine, serine, and glycine” value ([2]; 13C glucose, vs Luc modRNA) was “significant elevation”.
